Results: patent US20240218041A1, “MOLECULAR DESIGN OF GLUCOSE SENSORS IN GLUCOSE-RESPONSIVE INSULIN ANALOGUES” (THE TRUSTEES OF INDIANA UNIVERSITY, priority 2021, published 2024)

Assays:
[1] = system: PEPCK, ChREBP and SREBP gene expression in HepG2 cells; experiment: Real-time qPCR assays of metabolic gene regulation in HepG2 cells; type: cell-based, human
Protocol: Cell culture. Human hepatocellular carcinoma cell line HepG2 was cultured in Dulbecco's Modified Eagle Medium (DMEM), supplemented with 10% fetal bovine serum (FBS), 1% penicillin/streptomycin as recommended by the American Type Culture Collection. A protocol employing 24-h serum starvation wherein FBS was applied at 70-75% confluence. After starvation, cells were treated in parallel with a set of insulin analogues in serum-free medium.
Real-time qPCR assays. Following serum starvation, HepG2 cells were treated with medium containing an insulin analogue (50 nM) for 8 h. In studies related to possible glucose responsiveness and lipid metabolism, the cells were treated with analogues for 3 or 4 h in media containing either low or normal glucose concentrations. Readouts were provided by downregulation of PEPCK and G6P and upregulation of ChREBP and SREBP. mRNA (messenger ribonucleic acid) abundances were measured in triplicate by quantitative polymerase chain reaction (qPCR). Samples were prepared as described by the vendor (One-Step rt-PCR reagent kits; Bio-Rad).

[2] = system: IR autophosphorylation and downstream p-AKT/AKT, p-FOXO1/FOXO1, p-GSK-3/GSK-3; experiment: Western blot signaling assays in HepG2 cells; type: cell-based, human
Protocol: Signal propagation was probed via a cytoplasmic kinase cascade and changes in metabolic gene expression in HepG2 cells. […] An overview of IR autophosphorylation (probed by anti-pTyr IR antibodies) and downstream phosphorylation of Ser-Thr protein kinase AKT (protein kinase B; ratio p-AKT/AKT), forkhead transcription factor 1 (p-FOXO1/FOXO1), and glycogen synthase kinase-3 (p-GSK-3/GSK-3) at a single hormone dose (50 nM) was provided by Western blot (WB).
Signaling assays in a mammalian cell line. HepG2 cell line (ATCC) were cultured in DMEM with 10% FBS, 1% penicillin/streptomycin per vendor's instruction. After 70-75% cell confluence, cells were serum-starved for 24 h and then exposed to medium containing an insulin analogue (each at a protein concentration of 50 nM). After lysis in RIPA buffer (containing protease- and phosphatase-inhibitor cocktails; Roche), the total protein concentrations in the lysate was determined by BCA assay (Thermo). […] Briefly, for p-IR/IR blotting, samples were probed by insulin receptor β (4B8) antibody (CST antibodies unless otherwise stated) or an equal mixture of anti-phospho-insulin receptor β (Tyr1150/1151); phospho-insulin receptor (Tyr1158) antibody (Thermo); phospho-insulin receptor (Tyr1334) antibody (Thermo); phospho-insulin receptor β (Tyr1345) monoclonal antiserum; and anti-phospho-insulin receptor (phospho-Tyr972) antibody (Abcam). […]

insulin receptor = insulin receptor (Homo sapiens, UniProt P06213); experiment: In-cell pIR immunoblotting (pIR/IR phosphorylation, 96-well plate assay) in HepG2 cells; type: cell-based; set-up: endogenous in cells; host or cells: HepG2 (human hepatocellular carcinoma; ATCC); conditions: for glucose-dependent activity in HepG2 cells in culture: as described in Chen, Y.-S., et al. (2021); for monosaccharide dependence of biological activity (pIR/IR phosphorylation): ±50 mM glucose or ±50 mM fructose
Protocol: After starvation, cells were treated in parallel with a set of insulin analogues in serum-free medium.
In-cell pIR immunoblotting. This cell-based assay probed insulin-dependent IR activation via fluorescent readouts. HepG2 cells were seeded (˜8000 cells/well) into a 96-well black plate with clear bottom and cultured (Fisher). After serum starvation in 100 μl plain Hanks' Balanced Salt Solution (HBSS) for 2 h at 37° C., serial analogue dilutions (100 μl) were applied to each well; cells were then incubated for 20 min at 37° C. After removing medium, 150 μl of 3.7% formaldehyde (Fisher) was added to each well, and plates incubated for 20 min at 37° C. 200 μl of 0.1% Triton-X-100 (Sigma) was then added to permeabilize the cells, followed by their fixation by 100-μl Odyssey Blocking Buffer (LI-COR). A blocking procedure was applied for 1 h at room temperature on an orbital shaker. Fixed cells were then exposed to the primary antibody (10 μL anti-pTyr 4G10 (Sigma) into 20 ml Blocking Buffer) overnight at 4° C. The secondary antibody (anti-mouse-IgG-800-CW antibody (Sigma) in 25 ml Blocking Buffer) was added after a wash. pTyr was detected via 800 nm emission. DRAQ5 (Fisher) was also applied to enable measurement of cell number via 700 nm emission. The fluorescence signals were detected on a LI-COR Infrared Imaging system (Odyssey) under settings as follows: offset 4 mm with setting “Intensity-Auto.”

[3] = in vivo; cited from earlier work

FRI: insulin lispro with meta-fluoro-PBA on the α-amino group of GlyA1, 3,4-dihydroxybenzoic acid on LysB28, and HisA8
regulation of PEPCK gene expression ([1]; activated by fructose, hypoglycemic conditions, HepG2): regulated downstream expression | regulation of ChREBP and SREBP genes ([1]; activated by fructose, normoglycemic conditions, HepG2): regulated the genes | effect of glucose on metabolic gene regulation ([1]; addition of glucose instead of fructose): no effects | signaling activity ([2]; in the absence of fructose, 50 nM): low | fructose dependence of signaling (IR autophosphorylation, p-AKT/AKT, p-FOXO1/FOXO1, p-GSK-3/GSK-3) ([2]; single hormone dose 50 nM, HepG2 cells): fructose-dependent signaling | effect of glucose on IR autophosphorylation activity (insulin receptor; addition of 50 mM glucose): did not influence its activity | IR autophosphorylation activity relative to KP (insulin receptor; in 50 mM fructose): almost as active as KP | baseline IR autophosphorylation activity (insulin receptor; in the absence of fructose): low | IR autophosphorylation signal (insulin receptor; on addition of 50 mM fructose): robust signal

GlyA0, D-Cys(GBE1-C)A1, SecA6, SecA11, Lys(DHBA)B28-lispro [GRI-3]
glucose-dependent gene regulation ([1]; PEPCK, ChREBP and SREBP, HepG2 cells in culture): glucose-dependent gene regulation | glucose-dependent activity in HepG2 cells in culture (insulin receptor): glucose-dependent activity | monosaccharide dependence of biological activity (pIR/IR phosphorylation) (insulin receptor; HepG2 cells): monosaccharide-dependent biological activity | glucose dependence of pIR/IR phosphorylation (insulin receptor; ±50 mM glucose, HepG2 cells): glucose-dependent IR phosphorylation

GlyA−1, Cys(GBE1-C)A0, SecA6, SecA11, Lys(DHBA)B28-lispro [GRI-4]
glucose-dependent activity in HepG2 cells in culture (insulin receptor): glucose-dependent activity | monosaccharide dependence of biological activity (pIR/IR phosphorylation) (insulin receptor; HepG2 cells): monosaccharide-dependent biological activity

insulin detemir
per molecule activity relative to human insulin [3]: fourfold reduced
